From patent US9695189B2, “Chemical crosslinkers and compositions thereof” (priority 2013, dated 2017)

Assay: Cleavage of conjugate in potassium phosphate buffer and rat serum
Type: in vitro ADME
Settings: potassium phosphate buffer pH 7.4 and rat serum (1:1), 37° C., overnight incubation
Experimental: A mixture of compound (26) (2.9 mg) in potassium phosphate buffer (1.0 mL, pH 7.4) and rat serum (1.0 mL, Aleken Biologicals) was incubated at 37° C.

For “L-glutathione N^2-CBZ-lysine conjugate [Compound 26]”, the “Cleavage (hydrolysis) of conjugate releasing N^2-(carbobenzyloxy)-L-lysine” value was “hydrolysis of compound (26) to yield N^2-(carbobenzyloxy)-L-lysine was observed”.
